Biological target: peptide containing the sequence LAETG

B1: SrtE1^ΔN, extracellular domain of sortase E1 from Streptomyces coelicolor (residues T162-S352), Q9XA14 162-352 (enzyme)
chain: TNVRAHAQANQAASNLQDDWANGKRSPGSFEPGQGFALLHIPKLDVVVPIAEGISSKKVLDRGMVGHYAEDGLKTAMPDAKAGNFGLAGHRNTHGEPFRYINKLEPGDPIVVETQDKYFVYKMASILPVTSPSNVSVLDPVPKQSGFKGPGRYITLTTCTPEFTSKYRMIVWGKMVEERPRSKGKPDALVS
Q: Which hydrolysis of the peptide at the T-G bond, in vitro HPLC assay (area of the N-terminal product peak); preference against the LPETG peptide does the source give for B1 here?
A: Its hydrolysis of the peptide at the T-G bond, in vitro HPLC assay (area of the N-terminal product peak); preference against the LPETG peptide is 2 fold.

Reference: paper PMC5148588
